This note sets out measurements from patent publication US20180305465A1.

Test [1] deals with Recombinant minimally biotinylated human CD38-His (Fisher Scientific) (human) (UniProt P28907). The test is described as follows: BLI, Octet HTX; biotinylated CD38-His on streptavidin tips (2 nm), antibody in solution; 1:1 model, kd/ka. On the technique in general: Biolayer interferometry detects binding as a change in optical thickness at a sensor tip.
The target in test [2] is Recombinant minimally biotinylated cynomolgus CD38-His (Sino Biological Inc.) (cynomolgus) (UniProt Q5VAN0). The description is as above.
Recombinant minimally biotinylated cynomolgus CD38-His (Sino Biological Inc.) (cynomolgus), sequence (Q5VAN0 44-301 limits assumed): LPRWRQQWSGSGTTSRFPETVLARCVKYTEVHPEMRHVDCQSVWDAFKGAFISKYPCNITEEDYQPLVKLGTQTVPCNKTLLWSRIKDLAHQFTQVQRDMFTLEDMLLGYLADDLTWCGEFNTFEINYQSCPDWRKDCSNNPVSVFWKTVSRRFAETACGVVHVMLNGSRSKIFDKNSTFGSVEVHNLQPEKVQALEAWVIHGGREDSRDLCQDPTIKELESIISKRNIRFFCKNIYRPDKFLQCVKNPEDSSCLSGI
Test [3] deals with cynomolgus CD38 on cynomolgus B cells (PBMCs) (cynomolgus) (UniProt Q5VAN0). Put plainly: cell-based or functional assay.
cynomolgus CD38 on cynomolgus B cells (PBMCs) (cynomolgus), sequence (Q5VAN0 whole entry): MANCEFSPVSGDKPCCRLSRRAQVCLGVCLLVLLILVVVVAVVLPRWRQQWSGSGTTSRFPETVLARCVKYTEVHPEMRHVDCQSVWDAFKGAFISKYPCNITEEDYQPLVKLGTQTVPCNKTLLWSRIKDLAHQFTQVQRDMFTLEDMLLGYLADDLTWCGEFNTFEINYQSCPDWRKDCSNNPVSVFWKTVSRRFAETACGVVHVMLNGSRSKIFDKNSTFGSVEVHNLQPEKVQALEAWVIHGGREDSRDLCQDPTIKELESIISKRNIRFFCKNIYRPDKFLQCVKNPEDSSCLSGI
The target in test [4] is Recombinant minimally biotinylated human CD38-His (Fisher Scientific) (human) (UniProt P28907). Put plainly: Absolute KD; BLI, Octet HTX, CD38-His at five loading levels 0.3-2 nm, plateau of measured KD as loading decreases.
Test [5] has as its target Recombinant minimally biotinylated cynomolgus CD38-His (Sino Biological Inc.) (cynomolgus) (UniProt Q5VAN0). The test is described as above.
Test [6] addresses Recombinant cynomolgus CD3ε-Fc (cynomolgus) (UniProt Q95LI5). The test is described as follows: SPR, SensiQ Pioneer FE; CD3ε-Fc amine coupled to CM5 chip; equilibrium analysis. In general terms: In SPR one partner is held on a chip, and binding of the other changes the refractive index at the surface.
For test [7], the target named is Recombinant human CD3ε-Fc (human). The description is as above.
Recombinant human CD3ε-Fc (human), sequence (chain, as listed by the source): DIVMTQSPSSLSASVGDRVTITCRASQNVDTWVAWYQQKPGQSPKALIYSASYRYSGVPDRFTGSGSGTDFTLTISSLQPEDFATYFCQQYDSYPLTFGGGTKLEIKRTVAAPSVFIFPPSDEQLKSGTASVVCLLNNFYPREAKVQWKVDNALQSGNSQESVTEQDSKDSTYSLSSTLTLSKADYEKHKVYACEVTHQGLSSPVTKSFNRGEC
For test [8] the target is unchanged. The test is described as follows: Absolute KD; SPR, Biacore T200, CD3ε-Fc amine coupled to CM5 at lowest usable density; koff/kon, 1:1 global fit.

Recombinant minimally biotinylated human CD38-His (Fisher Scientific) (human), sequence (P28907 43-300 limits assumed): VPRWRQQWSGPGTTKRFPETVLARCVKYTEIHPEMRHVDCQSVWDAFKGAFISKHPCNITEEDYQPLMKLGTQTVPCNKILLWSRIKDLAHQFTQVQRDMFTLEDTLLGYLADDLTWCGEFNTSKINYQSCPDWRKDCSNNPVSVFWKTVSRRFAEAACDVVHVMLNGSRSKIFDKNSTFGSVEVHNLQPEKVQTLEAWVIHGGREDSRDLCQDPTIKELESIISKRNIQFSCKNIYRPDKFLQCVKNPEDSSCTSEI
Recombinant cynomolgus CD3ε-Fc (cynomolgus), sequence (Q95LI5 22-117 limits assumed): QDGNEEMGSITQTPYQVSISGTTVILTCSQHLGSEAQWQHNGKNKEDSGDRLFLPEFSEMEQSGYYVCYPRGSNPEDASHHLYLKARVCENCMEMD

Turning to “XmAb18968 (412220) (bispecific antibody)”, the equilibrium dissociation constant (Kd) (in general, the constant that tells how readily two partners part at equilibrium) turned out to be 2.5 nM in test [1]; 2.8 nM in test [2]; 8.9 nM in test [4]; 7.5 nM in test [5]; 33.5 nM in test [6]; 29.7 nM in test [7]. Also, the Kd in test [8] is 35.6 nM. Further, the Cyno B Cell TDCC EC50 in test [3] was found to be 0.082 nM.
